Holding throughout (test): SPR
For orientation: In SPR one partner is held on a chip, and binding of the other changes the refractive index at the surface.

Test [1] concerns the target chronic gp120 with the early-replicating SP (HIV-1 (subtype B)).
The target of test [2] is early-replicating gp120 with its wild-type SP (HIV-1 (subtype B)).
The target of test [3] is early-replicating gp120 with the chronic SP (HIV-1 (subtype B)).
Test [4] has as its target chronic gp120 with its wild-type chronic SP (HIV-1 (subtype B)).

We go through one substance from article PMC5877976.

On to “tetrameric recombinant soluble DC-SIGN (from UniProt Q9NNX6 1-404) (receptor)”, for which the peak response units (RU) amounted to 308 RU in test [1], 208 RU in test [2], 131 RU in test [3] and 184 RU in test [4].
